The values below come from article doi:10.1101/871988.

This assay addresses recombinant human scavenger receptor B1 (SRB1) (human) (UniProt Q8WTV0). Description: SPR. A general note: Surface plasmon resonance follows binding to a sensor surface in real time, without labels.
Sequence of UniProt Q8WTV0 (Q8WTV0 whole entry): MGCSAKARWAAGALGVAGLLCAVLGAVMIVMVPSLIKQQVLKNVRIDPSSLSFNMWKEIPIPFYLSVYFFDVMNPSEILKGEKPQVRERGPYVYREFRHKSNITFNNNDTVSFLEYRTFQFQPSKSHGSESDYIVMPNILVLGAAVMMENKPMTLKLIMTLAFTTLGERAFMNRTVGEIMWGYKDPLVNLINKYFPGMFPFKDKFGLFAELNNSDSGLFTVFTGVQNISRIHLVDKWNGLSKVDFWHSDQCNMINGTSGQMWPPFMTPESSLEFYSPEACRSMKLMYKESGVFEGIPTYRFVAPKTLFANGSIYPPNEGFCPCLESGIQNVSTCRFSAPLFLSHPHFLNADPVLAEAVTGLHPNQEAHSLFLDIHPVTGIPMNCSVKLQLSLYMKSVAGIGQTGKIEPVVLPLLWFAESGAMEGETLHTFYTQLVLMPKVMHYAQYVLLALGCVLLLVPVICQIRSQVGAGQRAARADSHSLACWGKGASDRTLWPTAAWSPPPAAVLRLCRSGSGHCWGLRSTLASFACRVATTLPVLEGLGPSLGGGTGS

Broadly, the Kd is a measure of binding affinity in units of concentration. For “human high density lipoprotein (HDL) (from UniProt P02647 19-267) (complex)”, the dissociation constant (Kd) stood at 18.7 nM.
Turning to “recombinant dengue virus non-structural protein 1 (DENV NS1) (natural protein)”, the Kd stood at 47 nM.
